Reference: PMC11481484

Legend:
Assay in all cases: cross-linking + co-IP; BHK-21 cells 42 h post-electroporation with WT or mutant viral RNA cross-linked with 1 mM DSP in PBS, 10 min, room temperature, quenched with 125 mM glycine; lysis buffer 2 (10 mM sodium phosphate pH 7.4, 50 mM NaCl, 1% Triton X-100); IP with mAb E1-20 or control mAb; cross-link reversed by DTT; western blot with RuV pAb
[1] = target: Rubella virus E2 envelope glycoprotein of the second-site revertant (N277I in the Y281A background) (Rubella virus (RuV))
[2] = target: Rubella virus E2 envelope glycoprotein, Y281A mutant (Rubella virus (RuV))
[3] = target: Rubella virus E2 envelope glycoprotein, pseudorevertant Y281V (Rubella virus (RuV))

Molecule	Cp/E2 ratio in the E1 mAb IP, normalised to WT (ratio, WT set to 1) [1]	Cp/E2 ratio in the E1 mAb IP, normalised to WT (ratio, WT set to 1) [2]	Cp/E2 ratio in the E1 mAb IP, normalised to WT (ratio, WT set to 1) [3]
Rubella virus capsid protein, D215A (second-site revertant) (from UniProt P08563 1-300) (natural protein)	0.85		
Rubella virus capsid protein, wild type (natural protein) MASTTPITMEDLQKALEAQSRALRAGLAAGASQSRRPRPPRQRDSSTSGDDSGRDSGGPRRRRGNRGRGQRKDWSRAPPPPEERQESRSQTPAPKPSRAPPQQPQPPRMQTGRGGSAPRPELGPPTNPFQAAVARGLRPPLHDPDTEAPTEACVTSWLWSEGEGAVFYRVDLHFTNLGTPPLDEDGRWDPALMYNPCGPEPPAHVVRAYNQPAGDVRGVWGKGERTYAEQDFRVGGTRWHRLLRMPVRGLDGDTAPLPPHTTERIETRSARHPWRIRFGAPQAFLAGLLLAAVAVGTARA		0.31	0.46
